This is an account of results in patent publication US20100196398A1 (AstraZeneca / MedImmune, published 2010).

Assay [1] deals with T1, human CD105 (human, UniProt P17813 26-658).
T1 construct: whole, on cells; Target as carried by HUVEC cells in the FACS assays; also called endoglin; END
T1 sequence (looked up): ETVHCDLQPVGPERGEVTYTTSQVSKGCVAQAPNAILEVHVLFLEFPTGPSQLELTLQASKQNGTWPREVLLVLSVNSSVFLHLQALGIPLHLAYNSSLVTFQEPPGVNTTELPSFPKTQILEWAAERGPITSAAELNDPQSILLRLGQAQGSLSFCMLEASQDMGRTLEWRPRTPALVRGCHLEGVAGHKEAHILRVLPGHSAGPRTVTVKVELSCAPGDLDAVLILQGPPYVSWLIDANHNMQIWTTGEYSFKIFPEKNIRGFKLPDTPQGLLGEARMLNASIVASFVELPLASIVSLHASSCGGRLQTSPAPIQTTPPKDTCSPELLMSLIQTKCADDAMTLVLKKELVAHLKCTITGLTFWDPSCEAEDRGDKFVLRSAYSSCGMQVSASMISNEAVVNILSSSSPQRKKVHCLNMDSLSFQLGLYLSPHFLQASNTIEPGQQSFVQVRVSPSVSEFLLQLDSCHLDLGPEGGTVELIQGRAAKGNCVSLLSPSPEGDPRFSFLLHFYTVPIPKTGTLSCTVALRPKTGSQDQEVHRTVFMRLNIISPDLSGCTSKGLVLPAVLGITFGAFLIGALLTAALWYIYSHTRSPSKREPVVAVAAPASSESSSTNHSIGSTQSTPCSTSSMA
Put plainly: FACS KD determination on HUVEC cells, 4° C., nonlinear fit of geometric mean fluorescence.
Description: The affinity of the anti-CD105 antibodies was determined by FACS. […] Cells were kept on ice. Purified antibodies were serially diluted in filtered 1×PBS (2×) across 11 wells in 96-well plates. The twelfth well in each row contained buffer only. Cells and 1×PBS were added to each mAb well such that the final volume was 30 μL/well and each well contained approximately 100,000 cells. Plates were placed on a plate shaker for 3 hours at 4° C., then spun and washed 3 times with PBS. A fluorochrome-labeled secondary goat α-human polyclonal antibody was added to each well in a 200 μL volume. Plates were then incubated for 40 minutes at 4° C., then spun and washed 3 times with PBS.
The Geometric Mean Fluorescence (GMF) of 10,000 cells for each mAb concentration was determined using a FACSCalibur instrument. A nonlinear plot of GMF as a function of molecular mAb concentration was fit using Scientist software using the equation:
In the above equation, F=Geometric mean fluorescence, LT=total molecular mAb concentration, P′=proportionality constant that relates arbitrary fluorescence units to bound mAb, and KD=equilibrium dissociation constant. For each mAb an estimate for KD was obtained as P′ and KD were allowed to float freely in the nonlinear analysis.

Assay [2] has as its target T1, human CD105. As to the kind of experiment: FACS competition on HUVEC cells: unlabeled mAb at 50 ug/ml, wash, then FITC-labeled SN6 at 2 ug/ml; blocked antibody: SN6.

Residue numbers refer to the chain shown, from its start.

B1: fully human monoclonal antibody 6A6 (antibody, V domains shown)
VH: EVQLLESGGGLVQPGGSLRLSCAASGFTFSSYAMSWVRQAPGKGLEWVSTISGGGHSTYYADSVKGRFTISRDNSKNTLYLQMNSLRAEDTAVYYCARIAPAGPHFDYWGQGTLVTVSS
VL: NFMLTQPHSVSESPGKTVTFSCTRSSGSIASNFVQWYQQRPGSSPTTVIYEHNQRPSGVPDRFSGSIDSSSSSASLTISGLKTEDEADYYCQFYDRNSHWVFGGGTKLTVL
notes: XenoMouse hybridoma antibody of Campaign 2 (IgG2 and IgG4 strains); also called 6A6.2
In the assay with human CD105 [1], B1 returned a Kd below 1.15 nM. The “Max % Bloc(king) of SN6 binding” value in the assay with human CD105 [2] came to 95.4%.

B2: fully human monoclonal antibody 4.37 (antibody, V domains shown)
VH: QVQLVESGGGVVQPGRSLRLSCAASGFTFSDYGMHWVRQAPGKGLEWVAVIWYDGSNKYYADSVKGRFTISRDNSKNTLYLQMNSLRAEDTAVYYCARAAGFYYYYGMDVWGQGTTVTVSS
VL: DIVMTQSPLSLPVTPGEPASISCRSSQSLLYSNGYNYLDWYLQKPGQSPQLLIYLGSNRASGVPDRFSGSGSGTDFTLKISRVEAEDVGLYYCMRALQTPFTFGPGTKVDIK
notes: XenoMouse hybridoma antibody of Campaign 1 (IgG1 and IgG4 strains immunised with soluble CD105); also called mAb 4.37; 4.37κ
In the assay with human CD105 [1], B2 displayed a Kd below 0.717 nM. For the same molecule, in the assay with human CD105 [2], the “Max % Bloc(king) of SN6 binding” value was 57%.

B3: fully human monoclonal antibody 6B1 (antibody, V domains shown)
VH: QVQLVESGGGVVQPGRSLRLSCAASGFTFSSYGMHWVRQAPGKGLEWVAVIWYDGSNKYYADSVKGRFTISRDNSKNTLYLQMNSLRAEDTAVYYCVRDYSSGWYWGQGTLVTVSS
VL: SYELTQPPSVSVSPGQTARITCSGDALPKKYAYWYQQKSGQAPVLVIYEDSKRPSGIPERFSGSSSGTMATLTISGAQVEDEADYSCYSIDSSVNHVVFGGGTKLTVL
notes: XenoMouse hybridoma antibody of Campaign 2 (IgG2 and IgG4 strains); also called 6B1.1
In turn, B3 displayed a Kd with human CD105 [1] of 2.3 nM. Besides, in the assay with human CD105 [2], the “Max % Bloc(king) of SN6 binding” value was 20.5%.

B4: fully human monoclonal antibody 10C9 (antibody, V domains shown)
VH: QVQLVESGGGVVQPGRSLRLSCAASGFTFRSYGMHWVRQAPGKGLEWVAVIWYDGSNKYYADSVKGRFTISRDNSKNTLDLQMNSLRAEDTAVYYCARDRIAAARYYNGMDVWGQGTTVTVSS
VL: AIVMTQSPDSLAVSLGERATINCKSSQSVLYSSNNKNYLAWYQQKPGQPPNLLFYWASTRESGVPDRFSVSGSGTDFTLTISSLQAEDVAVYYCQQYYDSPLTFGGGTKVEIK
notes: XenoMouse hybridoma antibody of Campaign 2 (IgG2 and IgG4 strains); also called 10C9.2
As to B4, in the assay with human CD105 [1], the Kd was below 0.748 nM. Also, the “Max % Bloc(king) of SN6 binding” value in the assay with human CD105 [2] was 9%.

B5: fully human monoclonal antibody 4D4 (antibody, V domains shown)
VH: QVQLVESGGGVVQPGRSLRLSCAASGFTFSSYGMHWVRQAPGKGLEWVAVIWYDGSNKYYADSVKGRFTISRDNSKNTLYLQMNSLRAEDTAVYYCARVLGATGGYYYYYGMDVWGQGTTVTVSS
VL: not shown
notes: XenoMouse hybridoma antibody of Campaign 2 (IgG2 and IgG4 strains); also called 4D4.1
In turn, B5 registered a Kd with human CD105 [1] of 0.622 nM. For the same molecule, the “Max % Bloc(king) of SN6 binding” value with human CD105 [2] turned out to be 5.1%.

B6: fully human monoclonal antibody 4.120 (antibody, V domains shown)
VH: QVQLQESGPGLVKPSETLSLTCTVSGGSISSYYWSWIRQPAGKGLEWIGRIYTSGSTNYNPSLKSRVTMSVDTSKNQFSLKLSSVTAADTAVYYCARRDIGATIKGFDYWGQGTLVTVSS
VL: not shown
notes: XenoMouse hybridoma antibody of Campaign 1 (IgG1 and IgG4 strains immunised with soluble CD105); also called mAb 4.120
B6: binding with human CD105 [1] was put at a Kd of 0.77 nM. For the same molecule, the “Max % Bloc(king) of SN6 binding” value with human CD105 [2] was found to be 29.4%.

B7: fully human monoclonal antibody 6B10 (antibody, V domains shown)
VH: QEQLVESGGGVVQPGRSLRLSCTASGFTFSNYGIHWVRQAPGKGLEWVTVISYDGSKKYYADSVKGRFTISRDNSKNTLYLQMNSLRAEDTAVYYCARAFSTMVRGVDHWGQGTLVTVSS
VL: DIQMTQSPSSLSASVGDRVTITCQASQDIYKSLNWYQQRPGKAPNLLIYDASNLETGVPSRFSGSGSGTDFTFTISSLQPEDFARYFCQQYDNLPLTFGGGTRVEIK
notes: XenoMouse hybridoma antibody of Campaign 2 (IgG2 and IgG4 strains); also called 6B10.1; mAb 6B10
Consider B7, for which the Kd in the assay with human CD105 [1] was below 0.149 nM. The “Max % Bloc(king) of SN6 binding” value with human CD105 [2] turned out to be 96.9%.

B8: fully human monoclonal antibody 11H2 (antibody, V domains shown)
VH: QVQLVESGGGVVQPGRSLRLSCAASGFSFSSYGMHWVRQAPGKGLDWVAIIWYDGSYKYYADSVKGRFTISRDNSKNTLSLQMNSLRAEDTAVYYCARDGKYPFDYWGQGTLVTVSS
VL: SYVLTQPPSVSVAPGQTARITCGGNNIGSKSVHWYQQKPGQAPVLVVYDDSDRPSGIPERFSGSNSGNTATLTISRVEAGDEADYYCQVWDRSSDHVVFGGGTKLTVL
notes: XenoMouse hybridoma antibody of Campaign 2 (IgG2 and IgG4 strains); also called 11H2.1
Turning to B8, the equilibrium dissociation constant (Kd) with human CD105 [1] amounted to 0.338 nM. Moreover, in the assay with human CD105 [2], the “Max % Bloc(king) of SN6 binding” value came to 29.4%.

B9: fully human monoclonal antibody 9H10 (antibody, V domains shown)
VH: QVQLVESGGGVVQPGRSLRLSCAASGFAFINYGMHWVRQAPGKGLDWVAVISYDGSNKYYTDSVKGRFTISRDNSKNTLYLQMNSLRAEDTAVYYCARDLMGATLFDNWGQGTLVTVSS
VL: B8 VL with T21S, Y35F, R92S
notes: XenoMouse hybridoma antibody of Campaign 2 (IgG2 and IgG4 strains immunised with B300.19/human CD105 cells); also called 9H10.2
Turning to B9, the Kd in the assay with human CD105 [1] is below 0.584 nM. Moreover, the “Max % Bloc(king) of SN6 binding” value in the assay with human CD105 [2] was 81.9%.
